This is an account of results in patent US20160222058A1.

This assay has as its target Angiotensin converting enzyme (ACE). The experiment in a line: cell-based or functional assay.
“Ovotransferrin hydrolysate (thermolysin then pepsin) of ovotransferrin treated by sonication prior to hydrolysis” displayed an IC50 (µg/ml), in vitro ACE inhibitory activity of 9.2 µg/mL. Substance “Ovotransferrin hydrolysate (thermolysin then pepsin) of ovotransferrin treated with beta-mercaptoethanol prior to hydrolysis” registered an IC50 (µg/ml), in vitro ACE inhibitory activity of 45.6 µg/mL.

“Ovotransferrin hydrolysate (thermolysin then pepsin) of ovotransferrin treated with dithiothreitol prior to hydrolysis” registered an IC50 (µg/ml), in vitro ACE inhibitory activity of 10.7 µg/mL.

In the case of “Ovotransferrin hydrolysate prepared by pepsin, without reducing agent treatment”, the IC50 (µg/ml), in vitro ACE inhibitory activity is 320 µg/mL.

Substance “Ovotransferrin hydrolysate prepared by thermolysin and pepsin in combination, without sonication or reducing agent treatment” registered an IC50 (µg/ml), in vitro ACE inhibitory activity of 198 µg/mL. With “Ovotransferrin hydrolysate prepared by thermolysin, without reducing agent treatment” the figure was 215 µg/mL.
